Test results taken from article PMC12630831.

Molecular target: T1, PRDX1 (peroxiredoxin 1), endogenous in TM3 cells (mouse (endogenous in TM3)), P35700
T1 chain: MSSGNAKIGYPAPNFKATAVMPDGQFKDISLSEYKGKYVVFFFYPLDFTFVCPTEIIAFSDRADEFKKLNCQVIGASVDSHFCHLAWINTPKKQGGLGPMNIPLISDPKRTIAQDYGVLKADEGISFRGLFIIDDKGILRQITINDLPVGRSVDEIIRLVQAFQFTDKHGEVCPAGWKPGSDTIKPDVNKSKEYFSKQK
Assay: SDS-PAGE under DTT-free conditions with western blot
Details: remark: other sources report otherwise

B1: PRDX1 (peroxiredoxin 1), endogenous in TM3 cells, P35700 1-199 (enzyme)
chain: MSSGNAKIGYPAPNFKATAVMPDGQFKDISLSEYKGKYVVFFFYPLDFTFVCPTEIIAFSDRADEFKKLNCQVIGASVDSHFCHLAWINTPKKQGGLGPMNIPLISDPKRTIAQDYGVLKADEGISFRGLFIIDDKGILRQITINDLPVGRSVDEIIRLVQAFQFTDKHGEVCPAGWKPGSDTIKPDVNKSKEYFSKQK
  stoichiometry N: 2
